This test concerns the target T1, His6-PomZ (M. xanthus) (UniProt Q1DEM0).
T1 sequence: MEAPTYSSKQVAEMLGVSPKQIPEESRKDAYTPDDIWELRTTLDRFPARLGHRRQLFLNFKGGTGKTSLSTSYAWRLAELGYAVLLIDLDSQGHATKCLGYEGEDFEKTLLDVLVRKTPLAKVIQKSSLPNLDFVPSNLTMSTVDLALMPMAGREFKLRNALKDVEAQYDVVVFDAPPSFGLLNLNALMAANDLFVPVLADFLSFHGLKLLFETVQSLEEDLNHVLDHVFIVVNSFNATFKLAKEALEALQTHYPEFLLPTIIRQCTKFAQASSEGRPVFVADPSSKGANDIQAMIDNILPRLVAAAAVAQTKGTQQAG

Consider 1 molecule from PMC7993993.

Regarding MKKAFEQNVSRAKPRLRLGALT [PomX^NPEP peptide], the His6-PomZ ATPase activity (NADH-coupled assay, 1 mM ATP, 32°C) with DNA, PomX^NPEP peptide up to 15 µM, 4 µM His6-PomZ was found to be 27 ATP hr^−1.
